Assay: yeast display, Sf9 membrane polyspecificity reagent, FACS + sequencing; frameworks hold sequencing errors
In short: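 Galactose induction of a Saccharomyces cerevisiae BJ5465 synthetic nanobody display library ran 36–48 hours. The cells were then stained for 1 hour at 4 °C with 10% biotinylated, detergent-solubilized Sf9 membrane reagent, pulled down on streptavidin microbeads and FACS-sorted into low and high (top ~1%) gates on expression and reagent-binding fluorescence. Labels for polyreactivity follow the gate of origin.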

Sequence	polyreactivity (PSR sort gate)
QVQLVESGGGLVQAGGSLRLSCAASGLTFYRYAMGWYRQSPGKERELVAAISRGGTSTYYADSVKGRFTISRDNAKNTVYLQMSSLKPEDTAVYYCARLVKPYNYGRYGYWGQGTQVTVSS	high polyreactivity
QVQLVESGGGLVQAGGSLRLSCAASGRNFGYNAMGWYRQAPGKERELVAAITTSGGSTYYADSVKGRFTISRDNAKNTVYLQMNSLKPEDTAVYYCARDSLQVLYPYASDDSWGQGTQVTVSS	low polyreactivity
QVQLVESGGGLVQAGGTLRLTCAASGLTFGSNAMGWYRTAPGKERELVAAISVSGSTYYADSVKGRFTISRDNAKNTVYLLMNSLKPEDTAVYYCATYWAAGSRSRYASWGQGTQVTVSS	high polyreactivity
QVQLVDSGGGLVQAGGSLRLRCAASGLTFYTYAMGWYRQAPGKERELVAANRWRGGRTYYADSVKGRFTISRDNAKNTVYLQMNSLKPDDTAVYYCAADYSTLYKYDYWGQGTQVTVSS	low polyreactivity
QVQLVESGGGLVQAGGSLRLSCAASGLNFSYYVMGWYRQAPGKERELVATITYSGGSTYYADSVKGRFTISRDNAKNTVYLQMNSLKPEDTAVYYFNADTGYVYSEYEYWGQGTQVTVSS	high polyreactivity
QVQLVESGGRLVQAGGRLRLSCAASGSIFMKNAMGWYRPAHGKERELVADITRSGDRTYYADSVKGRFTISRDNAKNTVYLQMNSLKPEDTAVYYCAKYYVWPRYGYSGQGTQVTVSS	high polyreactivity
QVQLVDSGVGLVQAGGSLRLSCAASGRIFSVYAMGRYRHAPGKERELVASISSGGSTNYADSVKGRFTISRDNAKNTVYLQMNSLKPEDTAVYYCAADYWYRLFWYYGAPLDYWGLGTQVTVSS	low polyreactivity
QVQLVESGGGLVQAGGSLRLSCAASGSIFYPNVMGWYRQAPGKERELVATISWSGGNTYYADSVKGRFTISRDNAKNTVYLQMNSLKPEDTAVYYCAADQWSQDYDYWGQGTQVTVSS	low polyreactivity
QVQLVESAGGLVQAGGSLRLSCAASGLTFSIYALGWYRQAAGKERELVAAITGRGGRTYYADSVKGRFPISRDNAKNTVYLQMNTLKPDDTAVYYCAARYRGTDFDYWGQGTQVTVSS	high polyreactivity
QVQLVESGGGLVQAGVSLRLSCAASGTFYYAMGWYRQAPGKEREFVAAISWRGGTTYYADSVKGRFTISRDNAKNTVYLQMNSLKPEDTAVYYCATAPYVTSRRYGPYEYWGQGTQVTVSS	low polyreactivity
QVQLVESGGGLVQAGGSLRLSCAASGRIFKIYAMGWYRQAQGKERELVAAISRGVRTYYADSVKGRFTISRDNAKNTVYLQMNSLKPEDTAVYYCAADLLISPEFYYWGQGTQVTVSS	high polyreactivity
QVQLVESGGGLVQAGGSLRCSCAASGRTFGTYAMGWYRQAPGKERELVAAISTRDGSTYYADSVKGRYTISRDTAKNTVYLQMNSLKPEDTAVYYCNAVVRYYDWGYWDYDYWGQGTQVTVSS	low polyreactivity
QVQLVESGGGLVQAGGSLRLSCAASGFTFSYYAMGWYRQAPRKERELVAAISGGGGTNYADSVKGRFTISRDNAKNTVYLQMNSLKPEDTAVYYCATDQFTQPSHRRDYWGQGTQVTVSS	low polyreactivity
QVQLVESGGGLVQAGGSRRLTCAGSGYIFRPYAKRWYRQAPGKERELVAVISSGGSTYYADSVKGRFTISRDNEKNTVYFQMNSLKPQDTAVYYCKRTLWSMGGTTYEYWGQGTQVTVSS	low polyreactivity
QVQLVESGGGLVQAGGSLRLSSAASGSIFYDNAMAGYRQAPGKERELVAVITVSGESTYYADSVKGRFTISRDNAKTTVYLQMNSLKPEDTAVYYCNTDAISGSHFWRYITFGYLDDYWGQGTQVTVSS	low polyreactivity
QVQLVESGGGLVQAGGSLRLSCAASGSILPDYAMGWYRQAPGKERELVASITNSGDSTYYADSVKGRFTISRDNAKNPVYLQMNSLKPEDTAVYYCNADSVRYDYSANDYEYWGQGSQVTVSS	high polyreactivity
QVQLVESGGGLVQAGGSLRLSCAASGRITGIYAMGWYRPAPGKERELVAAITWRGGRTCYADSVKGRFTISRDNAKNSVYLQMNSLKPEDTAVYYCAAELQGAYYFAYYYWGQGTQVTVSS	high polyreactivity
QVQLVESGGGLVQAGGSLRLSCAASGRNFYRYGMGWYRQAPGKERELVAAITYGGGSTYADSVKGRFTISRDNAKNTVYLQMNSLKPEDTAVYYCNARSRYRHYGFDYWGQGTQVTVSS	high polyreactivity
QVHLVESGGGLVQAGGSLRLSCAASGFTFYQYAMGWYRQAPGKERELVAAITASGGSTYYADSVKRRFTISRDNAKNTVYLQMNSLKPEDTAVYYCAAERYFVLYRYYSYAYYYWGQGTQVTVSS	high polyreactivity
QVQLVESGGGLVQAGGSLRLSCAASGGTFAEYVMGRYRQAPGKERELVAAIDWSGGSTYYADSVKGRFTISRDNAKNTVYFQMNSLKPEDTALYYCAKGPGYGFYKLMSYDSWGQGTQVTVSS	low polyreactivity
QVLLQESGGGLVEAGGSLRLSCAASGTISTDIRMGWYRLAPGKEREFVASIDGGSTTYYADSVKGRFTISRDNAKNTVYLQMNSLKPQDTAMYYCAAGEATEFYLYYWGQGTQVTVSS	low polyreactivity
QVQLVESGGGLVQAGCSLRLSCAASGFIFVRNAMGWYRQAPGKERELVAAISSSGGSTNYADSVKGRFTISRDNAKNTVYLQMNSLKPEDTAVYYCNAQRYYDYWGQGTQVTVSS	high polyreactivity

Sequence	polyreactivity (PSR sort gate)
QVQLVESGGGLVQAGGSLRLSCAASGSTIDVYTMGWYRQAPGKERELVAAISRGSSTYYADSVKGRFTISRDNAKYTVYVQMNSLKPEDTAVYYCNAVTSRKYRRYGYGYWGQGTQVTVSS	high polyreactivity
QVQLVESGGGLVQAGGSLRLSCAASGFIFRSYAMGWYRPAPGKERELVAAITKSGGRTYYADSVKGRFTISRDNAKNTVYLQMNSLKPEDTAVYYCAADQTSYSTSRRYDYWGQGTQVTVSS	high polyreactivity
QVQLVESGGGLVQAGGSLRLSCAASGFIFSYYTMGWYRQAPGKERELVAAISRNGGSTYYADSVKGRFTISRDNAKNTVYLQMNSLKPEDTAVYYCAKRVFNYQRYDYWGQGTQVSVSS	high polyreactivity
QVQHVESGGGLVQAGGSLRLSCAASGSTFWRYAMGWYRQAPGKERELVAAISTSGGSTRYADSVKGRFTISRDNAKNTVYFQMKSLKPEDTEVYYCADRSVSSTSYGYWGQGTQVTVSS	high polyreactivity
QVQLVESGGGLVQAGGSLRLSCAASGRTFQFYVMGWYRQAPGKERELVASIRSGGSTNYADSVKGRFTISRDNAKNTVYLQMNSLKPEDTAVYYCAARVASPYYRYDYWGQGTQVTVSS	low polyreactivity
QVQLVESGGGLVQAGGSLRLSCAASGSIYLKYAMGWYRQAPGKERELVAAISSRGGSTYYADSVKGRFTISRDNAKNTVYLQMNSLKPEDTAVYYCAAKRWPGTDGYWGQGTQVTVSS	high polyreactivity
QVQLVESGGGLVQAGGSLRLSCAASGSIFDENAMGWYIQAPGKERELVAAITGSGVRTYYADSVKGRFTISRDNAKTTVYLQMNSLKPEDTAVYYCAAETLGVYDYESYTYYWGQRTQVTVSS	high polyreactivity
QVQLVESGGGLVQAGGSLRLTCAASGAIFDSYAMGWYRQAPGKEWQLVASISYRGGSTYYADSVKGRFTISRDHAKNTVYLQKNSLKPEDTAVYYCAATPGYHYRSWRYYYWGQGTLVTVSS	high polyreactivity
QVQLVESGGGLVQAGGSLRLSCAASGYTFPQYAMGWYRQAPGKERELVAAITRRGGSTYYADSVKGRFTISRDNAKNTVYLQMNSLKPEDTAVYYCASDSYPYSLGGDYWGQGTQVTVSS	high polyreactivity
QVQLVESGGGLVQAGGSLRLSCAASGNIFTLNTSGCYRQAPGKERELVARITSGDRKYYADSVKGRFTISRDNAKNTVYLQMNSLKPEDTAVYYCAARRPAYYSFWVTGYNYWGQGTQVTVSS	high polyreactivity
QVQLVESGGGLVQAGGSLRLSCAASGFTFRRYAMGWYRQAPGKEREMVAVINVSDGSTYYADSVKGRFTISRDNAKNTVYLQMNSLKPEDTAVYYCAAYLYNRPYQLPGYYDGYGYWGQGTQVTVSS	low polyreactivity
QVQLVESGGGLVQAGGSLRLSCAASGSIFTFYAMGWYRQAPGKERELVATITISTGSTYYADSVKGRFTISRDNAKNTVYLQMNCLKPEDTAVYYCAARRRSAEYNYWGQGTQVTVSS	high polyreactivity
QVQLVESGGGLVQAGGSLRLSCAASGSIFWAYTMGWYRQAPGKERELVAAISASGGSTYYADSVKGRFTISRDNAKNTVYFQMNSLKPEDTAVYYCAAVYDLGYYGPIWAIVLDDYWGQGTQVTVSS	low polyreactivity
QVQLVESGGGLVQAGGSLRLSCPDSGRIFFLYAMGWYRQAPGKERELVAAITKSGGSTYADSVKGRFTISRDNAKNTVFLQMNSLIPEDTAVYYCAADLFTDLYDSWGQGTQVTVSS	low polyreactivity
QVQLVESGGGLVQAGGSLRLSCAASGSIFYPYAMGWYRQAPGKERELVAAITTGGGSTYADSVKGRFTISRDNAKNTVYLQMNSLKPEDTAVYYCNTDEYDIGSVYTLWEYDYWGQGTQVTVSS	low polyreactivity
QVQLVESGGGLVQAGGSLRLSCAASGSTFNTYAMGWYRQAPGKERELVAAITWRGGRTYYADSVKGRFTISRDNAKNTVYLQMNSLKPEDTAVYYCNTLRPRLDGVYGYDYWGQGTQVTVSS	high polyreactivity
QVQLEESGGGLVQAGGSLRLSCAASGFIFYRYAMGWYRQAPGKERELVAALTTGGDRTYYADSVKGRFTISRDNAKNTVYLQMNSLKPEDPAVYYCATLWSYYYATIYLDGYDYWGQGTQVTVSS	high polyreactivity
QVQLVESGGGLVQAGGSLRLSCAASGSTFSKNAMGWYRQAPGKERELVASISSSGGSTYYADSVKGRFTISRDNAKNTVYLQMNSLKPEDTAVYYCNRRWYARGEYWGQGTQVTVSS	high polyreactivity
QVQLQESGGGLVQAGGSLRPSCEASGNISLNVYMCWYRQAPGKEREFVAGTADGATTNYADSVKGRFTISRDNAKNTVFLQMNSLKPEDTAVYDCIKDYGYVQLRFYGPGYYWGQGTQVTVSS	low polyreactivity
QVKLVESGGGLVQAGASLRLSCAASGIISYGNAMGRYRQAPGKERELVASISGISGSTYYADSVKGRFTISRDNAKNTVYLQMNSLKPEDTAVYYCNARYPTYRASYHGDYWGQGTQVTVSS	low polyreactivity
QVQLVESGGGLVQAGGSLRLSCAASGFIFRSYAMGWYRQAPGKERELVAAITSGGRTFYADSVKGRFTISRDNAKNTVYLQMNSLKPEDTAVYYCAAGGYRTGFNYWGQGTQVTVSS	high polyreactivity

From the nanobody polyreactivity screen of Harvey et al. (2022)
